T1: APBA1_2, Q02410
T1 sequence (Q02410 742-832, limits assumed, looked up): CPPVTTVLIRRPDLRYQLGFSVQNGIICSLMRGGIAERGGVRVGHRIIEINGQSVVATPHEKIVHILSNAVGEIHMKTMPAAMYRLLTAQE

T2: APBA2_1, Q99767
T2 sequence (Q99767 563-664, limits assumed, looked up): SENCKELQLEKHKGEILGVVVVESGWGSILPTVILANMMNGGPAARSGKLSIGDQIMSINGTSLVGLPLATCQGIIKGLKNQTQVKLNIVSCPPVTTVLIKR

T3: APBA2_2, Q99767
T3 sequence (Q99767 654-744, limits assumed, looked up): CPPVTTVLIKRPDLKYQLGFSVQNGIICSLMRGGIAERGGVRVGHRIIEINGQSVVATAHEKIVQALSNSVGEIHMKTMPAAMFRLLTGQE

T4: DLG3_2, Q92796
T4 sequence (Q92796 221-321, limits assumed, looked up): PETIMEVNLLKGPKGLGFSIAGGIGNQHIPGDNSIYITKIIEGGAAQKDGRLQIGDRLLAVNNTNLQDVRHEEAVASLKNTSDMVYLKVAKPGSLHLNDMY

T5: FRMPD1, Q5SYB0
T5 sequence (Q5SYB0 52-145, limits assumed, looked up): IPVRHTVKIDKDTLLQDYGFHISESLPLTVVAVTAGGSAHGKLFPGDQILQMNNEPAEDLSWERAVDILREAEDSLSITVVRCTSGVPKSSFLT

T6: GRIP1_5, Q9Y3R0
T6 sequence (Q9Y3R0 568-668, limits assumed, looked up): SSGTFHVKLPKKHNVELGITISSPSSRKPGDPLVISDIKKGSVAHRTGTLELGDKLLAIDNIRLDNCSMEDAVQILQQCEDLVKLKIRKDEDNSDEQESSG

T7: LNX2_2, Q8N448
T7 sequence (Q8N448 334-432, limits assumed, looked up): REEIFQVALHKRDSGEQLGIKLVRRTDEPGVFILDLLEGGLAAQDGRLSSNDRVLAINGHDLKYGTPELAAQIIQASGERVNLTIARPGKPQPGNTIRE

T8: LRRC7, Q96NW7
T8 sequence (Q96NW7 1440-1537, limits assumed, looked up): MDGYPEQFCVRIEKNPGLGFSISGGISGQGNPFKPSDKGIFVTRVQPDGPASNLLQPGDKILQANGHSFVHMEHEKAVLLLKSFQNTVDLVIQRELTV

T9: MPP2, Q14168
T9 sequence (Q14168 180-250, limits assumed, looked up): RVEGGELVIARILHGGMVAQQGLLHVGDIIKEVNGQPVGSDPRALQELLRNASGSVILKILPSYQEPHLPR

T10: NHERF3_4, Q5T2W1
T10 sequence (Q5T2W1 373-468, limits assumed, looked up): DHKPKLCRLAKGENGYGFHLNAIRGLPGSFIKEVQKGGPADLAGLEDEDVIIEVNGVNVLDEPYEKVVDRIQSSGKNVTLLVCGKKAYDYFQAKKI

T11: RADIL, Q96JH8
T11 sequence (Q96JH8 971-1071, limits assumed, looked up): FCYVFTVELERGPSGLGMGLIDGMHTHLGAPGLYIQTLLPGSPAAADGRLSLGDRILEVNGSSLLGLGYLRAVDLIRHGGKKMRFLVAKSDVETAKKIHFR

T12: SIPA1L2, Q9P2F8
T12 sequence (Q9P2F8 945-1036, limits assumed, looked up): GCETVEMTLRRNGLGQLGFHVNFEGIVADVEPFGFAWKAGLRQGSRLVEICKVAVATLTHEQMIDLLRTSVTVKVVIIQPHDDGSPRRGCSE

T13: TIAM2, Q8IVF5
T13 sequence (Q8IVF5 885-986, limits assumed, looked up): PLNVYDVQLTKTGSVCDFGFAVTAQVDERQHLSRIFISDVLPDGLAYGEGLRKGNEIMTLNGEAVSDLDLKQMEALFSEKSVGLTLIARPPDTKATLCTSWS


Columns and labels:
Experiment in all cases: holdup assay
Set-up in all cases: key: below the threshold = too weak to quantify, mostly under pKd 3.1 to 4
Conditions in all cases: plain residues with an end cap or a label only (N-terminal biotin on a linker: ado-ado)
[1] = target: T1, APBA1_2, Q02410
[2] = target: T2, APBA2_1, Q99767
[3] = target: T3, APBA2_2, Q99767
[4] = target: T4, DLG3_2, Q92796
[5] = target: DLG4_1, P78352
DLG4_1, P78352, sequence (P78352 62-152): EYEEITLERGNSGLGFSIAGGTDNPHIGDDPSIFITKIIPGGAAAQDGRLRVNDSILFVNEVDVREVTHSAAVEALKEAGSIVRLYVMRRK

[6] = target: T5, FRMPD1, Q5SYB0
[7] = target: FRMPD3, Q5JV73
FRMPD3, Q5JV73, sequence (Q5JV73 12-100): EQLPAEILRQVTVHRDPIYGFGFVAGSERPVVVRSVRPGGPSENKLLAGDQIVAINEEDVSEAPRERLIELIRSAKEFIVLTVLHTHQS

[8] = target: T6, GRIP1_5, Q9Y3R0
[9] = target: GRIP2_5, Q9C0E4
GRIP2_5, Q9C0E4, sequence (Q9C0E4 544-642): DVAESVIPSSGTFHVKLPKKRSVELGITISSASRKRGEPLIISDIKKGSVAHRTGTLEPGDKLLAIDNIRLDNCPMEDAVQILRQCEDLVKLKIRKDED

[10] = target: Inadl_6, Q8NI35
Inadl_6, Q8NI35, sequence (Q8NI35 1058-1167): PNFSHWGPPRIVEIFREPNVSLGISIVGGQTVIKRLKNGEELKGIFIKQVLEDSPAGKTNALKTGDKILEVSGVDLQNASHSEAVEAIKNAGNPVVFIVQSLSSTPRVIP

[11] = target: LNX1_2, Q8TBB1
LNX1_2, Q8TBB1, sequence (Q8TBB1 371-470): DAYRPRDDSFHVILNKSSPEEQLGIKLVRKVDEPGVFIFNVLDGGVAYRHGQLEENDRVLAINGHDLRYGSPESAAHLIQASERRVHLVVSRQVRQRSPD

[12] = target: T7, LNX2_2, Q8N448
[13] = target: T8, LRRC7, Q96NW7
[14] = target: MAGI2_4, Q86UL8
MAGI2_4, Q86UL8, sequence (Q86UL8 772-865): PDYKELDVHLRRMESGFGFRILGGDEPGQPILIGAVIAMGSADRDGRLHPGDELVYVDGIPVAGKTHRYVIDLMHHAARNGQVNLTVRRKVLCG

[15] = target: MAGI2_5, Q86UL8
MAGI2_5, Q86UL8, sequence (Q86UL8 915-1017): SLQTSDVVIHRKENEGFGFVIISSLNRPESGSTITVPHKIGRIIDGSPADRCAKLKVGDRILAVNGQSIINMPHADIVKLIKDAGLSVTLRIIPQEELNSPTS

[16] = target: MAST2, Q6P0Q8
MAST2, Q6P0Q8, sequence (Q6P0Q8 1099-1202): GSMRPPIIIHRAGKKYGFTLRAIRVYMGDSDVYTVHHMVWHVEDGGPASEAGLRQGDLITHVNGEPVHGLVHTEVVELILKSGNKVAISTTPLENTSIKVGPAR

[17] = target: T9, MPP2, Q14168
[18] = target: T10, NHERF3_4, Q5T2W1
[19] = target: NOS1, P29475
NOS1, P29475, sequence (P29475 9-101): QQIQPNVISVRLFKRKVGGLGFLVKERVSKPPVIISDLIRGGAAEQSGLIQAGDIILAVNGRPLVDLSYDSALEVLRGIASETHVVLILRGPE

[20] = target: PDLIM1, O00151
PDLIM1, O00151, sequence (O00151 1-87): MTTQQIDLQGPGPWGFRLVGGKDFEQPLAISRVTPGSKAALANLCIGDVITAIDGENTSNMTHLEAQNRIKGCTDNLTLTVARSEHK

[21] = target: T11, RADIL, Q96JH8
[22] = target: SCRIB_3, Q14160
SCRIB_3, Q14160, sequence (Q14160 999-1103): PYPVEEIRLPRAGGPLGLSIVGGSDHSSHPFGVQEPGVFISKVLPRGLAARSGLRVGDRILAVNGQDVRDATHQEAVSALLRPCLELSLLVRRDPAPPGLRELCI

[23] = target: T12, SIPA1L2, Q9P2F8
[24] = target: T13, TIAM2, Q8IVF5
[25] = target: TJP1_2, Q07157
TJP1_2, Q07157, sequence (Q07157 181-274): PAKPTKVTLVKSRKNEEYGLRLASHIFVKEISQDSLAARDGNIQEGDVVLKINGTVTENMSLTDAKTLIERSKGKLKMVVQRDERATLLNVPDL

Row | pKd [1] | pKd [2] | pKd [3] | pKd [4] | pKd [5] | pKd [6] | pKd [7] | pKd [8] | pKd [9] | pKd [10] | pKd [11] | pKd [12] | pKd [13] | pKd [14] | pKd [15] | pKd [16] | pKd [17] | pKd [18] | pKd [19] | pKd [20] | Binder | other results
1 | below the threshold | below the threshold | below the threshold | 3.69 | below the threshold | below the threshold | below the threshold | below the threshold | below the threshold | below the threshold | 3.68 | 3.78 | below the threshold | 3.72 | 4.98 | 4.32 | below the threshold | below the threshold | below the threshold | below the threshold | AEASVACSLC [PTGIR, P43119] | pKd [21]: 3.94; pKd [22]: below the threshold; pKd [23]: below the threshold; pKd [24]: 3.75; pKd [25]: below the threshold
2 | 3.76 | below the threshold | below the threshold | 4.44 | 4.5 | below the threshold | below the threshold | below the threshold | below the threshold | below the threshold | below the threshold | below the threshold | below the threshold | below the threshold | below the threshold | 4.52 | below the threshold | 3.5 | 3.99 | below the threshold | NTANRRTTPV [CACNG2, Q9Y698] | pKd [21]: below the threshold; pKd [22]: 3.92; pKd [23]: below the threshold; pKd [24]: below the threshold; pKd [25]: below the threshold
3 | 3.82 | below the threshold | below the threshold | 4.11 | below the threshold | below the threshold | 3.94 | below the threshold | below the threshold | below the threshold | 4.46 | 5.05 | below the threshold | 3.8 | below the threshold | 4.44 | 4.46 | below the threshold | 3.6 | below the threshold | SFISKKEWYV [NECTIN1, Q15223] | pKd [21]: 4.94; pKd [22]: below the threshold; pKd [23]: below the threshold; pKd [24]: 5.09; pKd [25]: below the threshold

— paper PMC9482650, “Quantitative fragmentomics allow affinity mapping of interactomes” (Nature Communications, 2022)
